B1: human PSP (phosphoserine phosphatase) (Homo sapiens) (protein)
chain: MVSHSELRKLFYSADAVCFDVDSTVIREEGIDELAKICGVEDAVSEMTRRAMGGAVPFKAALTERLALIQPSREQVQRLIAEQPPHLTPGIRELVSRLQERNVQVFLISGGFRSIVEHVASKLNIPATNVFANRLKFYFNGEYAGFDETQPTAESGGKGKVIKLLKEKFHFKKIIMIGDGATDMEACPPADAFIGFGGNVIRQQVKDNAKWYITDFVELLGELEE
notes: dimer

Key:
[1] = target: T1, human PSP (phosphoserine phosphatase) (Homo sapiens, UniProt P78330); settings: 40 µM L-OPS, 15.7 nM PSP, 3 mM MgCl2, pH 7, 37 °C; product inhibition
T1 construct: gene PSPH
T1 sequence (P78330 1-225): B1 chain

purified protein = substrate: N[C@@H](COP(=O)(O)O)C(=O)O; assay: purified protein; format: biochemical, Homo sapiens; settings: 50 mM HEPES, 100 mM KCl, 3 mM MgCl2, pH 7, 37 °C, 170 µM acetyl-CoA, 0.5 mM DTNB, 430 mU HiSAT removing product L-serine

| Molecule | % inhibition at 50 mM [1] [%] | Km (purified protein) [µM] | kcat (purified protein) [s⁻¹] | kcat/Km (purified protein) [M⁻¹ s⁻¹] |
| --- | --- | --- | --- | --- |
| O=P(O)(O)O [phosphate] | 50 |  |  |  |
| B1 |  | 40.3 ± 2.8 | 44.8 ± 0.9 | 1.11e+06 ± 100000 |

Source: article PMC8229081, “A Novel Assay for Phosphoserine Phosphatase Exploiting Serine Acetyltransferase as the Coupling Enzyme” (Life, 2021)
